Test [1] has as its target T1, wt MPER peptide (HIV-1, strain  (synthetic …)). The test can be described thus: cell-based or functional assay.
Test [2] addresses T1, wt MPER peptide. The test can be described thus: BLI; Octet Red; Mabs captured on anti-human IgG Fc biosensors (10 µg/mL), peptides or ES2 as analyte in solution, two-fold dilutions 500 nM to 7.81 nM, PBS pH 7.4, 0.2% Tween 20, 60 s association and 60 s dissociation, no lipid; Langmuir 1:1 fit; also used for the alanine-substituted MPER peptides. The following applies: both partners purified. Background: In BLI a coated tip is dipped into the sample, and binding shifts an interference pattern.

Test [3] deals with T2, linked peptide (HIV-1, strain  (synthetic …)).
T2 construct: source: synthetic peptide (Genscript)
Described as above. The following applies: both partners purified.

Test [4] has as its target T1, wt MPER peptide. The experiment in a line: BLI. The following applies: both partners purified.
For test [5], the target named is T2, linked peptide. The experiment in a line: BLI. Conditions: both partners purified.

B1: 2F5 CDRH3 length-altered variant r2 (antibody, V domains shown)
VH: RITLKESGPPLVKPTQTLTLTCSFSGFSLSDFGVGVGWIRQPPGKALEWLAIIYSDDDKRYSPSLNTRLTITKDTSKNQVVLVMTRVSPVDTATYFCAHRRGPTLFGVIARGPVNAMDVWGQGITVTISS
VL: ALQLTQSPSSLSASVGDRITITCRASQGVTSALAWYRQKPGSPPQLLIYDASSLESGVPSRFSGSGSGTEFTLTISTLRPEDFATYYCQQLHFYPHTFGGGTRVDVR
In general, Kd refers to the equilibrium constant for the complex coming apart. Low values mean higher affinity, high ones lower affinity. The koff is the rate constant with which the complex falls apart. A lower koff goes with slow dissociation. What is called kon is the rate constant with which the complex forms. Take B1: in test [1], the “IC50 of neutralisation of JR-CSF Env-pseudotyped HIV-1, single-cycle infectivity assay on TZM-bl cells” value worked out at 98 µg/mL and the “IC50 of neutralisation of JR-FL Env-pseudotyped HIV-1, single-cycle infectivity assay on TZM-bl cells” value came out at 111 µg/mL. In test [2], this molecule came in with a Kd of 90.2 nM, a koff of 0.0051 s⁻¹ and a kon of 50000 M⁻¹ s⁻¹. In test [3], the Kd amounted to 55.8 nM, the koff worked out at 0.0085 s⁻¹ and the kon amounted to 150000 M⁻¹ s⁻¹.

B2: 2F5 CDRH3 length-altered variant r6 (antibody, V domains shown)
VH: RITLKESGPPLVKPTQTLTLTCSFSGFSLSDFGVGVGWIRQPPGKALEWLAIIYSDDDKRYSPSLNTRLTITKDTSKNQVVLVMTRVSPVDTATYFCAHRRGLFGVRGPVNAMDVWGQGITVTISS
VL: B1 VL
In test [2], B2 gave a Kd of 390 nM, a koff of 0.0189 s⁻¹ and a kon of 40000 M⁻¹ s⁻¹. In test [3], this molecule returned a Kd of 125 nM, a koff of 0.0237 s⁻¹ and a kon of 180000 M⁻¹ s⁻¹.

B3: 2F5 CDRH3 length-altered variant e4 (antibody, V domains shown)
VH: RITLKESGPPLVKPTQTLTLTCSFSGFSLSDFGVGVGWIRQPPGKALEWLAIIYSDDDKRYSPSLNTRLTITKDTSKNQVVLVMTRVSPVDTATYFCAHRRGPTTGGLFGVGGPIARGPVNAMDVWGQGITVTISS
VL: B1 VL
With B3, in test [2], binding was characterised by a dissociation constant (Kd) of 239 nM, the koff was found to be 0.0101 s⁻¹ and the kon was 40000 M⁻¹ s⁻¹. In test [3], this molecule returned a Kd of 78.6 nM, a koff of 0.0104 s⁻¹ and a kon of 130000 M⁻¹ s⁻¹.

B4: 2F5 CDRH3 length-altered variant e2 (antibody, V domains shown)
VH: RITLKESGPPLVKPTQTLTLTCSFSGFSLSDFGVGVGWIRQPPGKALEWLAIIYSDDDKRYSPSLNTRLTITKDTSKNQVVLVMTRVSPVDTATYFCAHRRGPTTGLFGVGPIARGPVNAMDVWGQGITVTISS
VL: B1 VL
In test [2], B4 returned a Kd of 463 nM, a koff of 0.0087 s⁻¹ and a kon of 10000 M⁻¹ s⁻¹. In test [3], this molecule had a Kd of 26.9 nM, a koff of 0.0035 s⁻¹ and a kon of 130000 M⁻¹ s⁻¹.

B5: 2F5 CDRH3 length-altered variant r4 (antibody, V domains shown)
VH: RITLKESGPPLVKPTQTLTLTCSFSGFSLSDFGVGVGWIRQPPGKALEWLAIIYSDDDKRYSPSLNTRLTITKDTSKNQVVLVMTRVSPVDTATYFCAHRRGPLFGVARGPVNAMDVWGQGITVTISS
VL: B1 VL
As to B5, in test [2], binding was characterised by a dissociation constant (Kd) of 382 nM, the koff was found to be 0.0081 s⁻¹ and the kon amounted to 20000 M⁻¹ s⁻¹. In test [3], this molecule displayed a Kd of 96.8 nM, a koff of 0.0105 s⁻¹ and a kon of 100000 M⁻¹ s⁻¹.

B6: wt 2F5 antibody (antibody, V domains shown)
VH: RITLKESGPPLVKPTQTLTLTCSFSGFSLSDFGVGVGWIRQPPGKALEWLAIIYSDDDKRYSPSLNTRLTITKDTSKNQVVLVMTRVSPVDTATYFCAHRRGPTTLFGVPIARGPVNAMDVWGQGITVTISS
VL: B1 VL
notes: also called 2F5 Mab; Mab 2F5
In test [4], B6 displayed a Kd of 3.1 nM, a koff of 0.0007 s⁻¹ and a kon of 230000 M⁻¹ s⁻¹. In test [5], this molecule yielded a Kd of 2.2 nM, a koff of 0.0007 s⁻¹ and a kon of 360000 M⁻¹ s⁻¹.

Values taken from paper PMC3400562, “Structure-guided Alterations of the gp41-directed HIV-1 Broadly Neutralizing Antibody 2F5 Reveal New Properties Regarding its Neutralizing Function” (PLoS Pathogens, 2012).
